Experimental data: patent US10471162B2, “Collagen targeted imaging probes” (priority 2014, dated 2019)
Where a SMILES comes first, the peptide text is derived from it. Bridges are numbered along the chain shown (N, C = ends). The star is where a group is joined. NODAGA = O=C(O)CN1CCN(CC(=O)O)CCN(C(CCC(=O)*)C(=O)O)CC1

How the values were obtained:
[1] = test system: pulmonary fibrosis, C57/BL6 mice (bleomycin or sham); experiment: in vivo; type: in vivo, mouse; conditions: for Biodistribution % ID/g, blood / Biodistribution % ID/g, heart / Biodistribution % ID/g, liver / Biodistribution % ID/g, spleen / Biodistribution % ID/g, bone / Biodistribution % ID/g, kidney / Biodistribution % ID/g, lungs / Biodistribution % ID/g, sm. intestine: male, C57/BL6, mouse; for Biodistribution % ID/g, blood / Biodistribution % ID/g, heart / Biodistribution % ID/g, liver / Biodistribution % ID/g, spleen / Biodistribution % ID/g, bone / Biodistribution % ID/g, kidney / Biodistribution % ID/g, lungs / Biodistribution % ID/g, sm. intestine / route of excretion: iv; for lung uptake in BM-treated (fibrotic) mice compared to sham, in words: biodistribution 2.5 hours after injection
Method: (§1) Pulmonary fibrosis was induced in 7-8-week-old male C57/BL6 mice by transtracheal administration of bleomycin (BM; 2.5 U/kg) in 50 μL of PBS under direct vision using a small cervical incision. Sham animals received only PBS. Animals were placed in a small-animal PET/SPECT/CT scanner (Triumph; TriFoil Imaging), equipped with inhalation anesthesia and heating pad. Each animal was anesthetized with isoflurane (4% for induction, 2-2.5% for maintenance in medical air) and body temperature was kept at 37-38° C. using a heating pad. The femoral vein was cannulated for intravenous delivery of the PET agent. Each mouse was injected with approximately 0.1 mL and 20-50 μCi of ^64Cu-CBP(n), 0.1 mL and 20-50 μCi of ^68Ga-CBP(n) and 0.1 mL and 10-20 μCi of Al^18F-CBP(n) in a 18 mM solution of sucrose in water, followed by saline flush. […] The lungs, blood, urine, heart, liver, left rectus femoris muscle, spleen, small intestine, kidneys, left femur bone were collected from all animals. The tissues were weighed, and radioactivity in each tissue was measured on a gamma counter (CobraII Auto gamma; Packard). The radioactivity in the lung was reported as percent injected dose per gram corrected with the average sham weight, which was calculated by dividing the counts of ^64Cu per average sham tissue weight in gram by the total of counts of the injected dose. The radioactivity in every other tissue was reported as percent injected dose per gram (% ID/g), which was calculated by dividing the counts of ^64Cu per gram of tissue by the total of counts of the injected dose. A p-value of less than 0.05 was considered significant. Uncertainties are expressed as the standard error of the mean.

in vivo = type: in vivo, mouse; conditions: male, C57/BL6, mouse, in vivo, iv, total radioactivity; for tissue uptake at 2.5 h / tissue uptake at 2 h: Biodistribution % ID/g
Method: as §1

rat tail collagen = biological target: T1, rat tail collagen (Rattus norvegicus, UniProt P02454+P02466); experiment: rat tail collagen-binding assay; conditions: 2 hours at room temperature, single binding site model
T1 construct: from tissue; host or cells: rat tail
T1 sequence (P02454 152-1207 limits assumed): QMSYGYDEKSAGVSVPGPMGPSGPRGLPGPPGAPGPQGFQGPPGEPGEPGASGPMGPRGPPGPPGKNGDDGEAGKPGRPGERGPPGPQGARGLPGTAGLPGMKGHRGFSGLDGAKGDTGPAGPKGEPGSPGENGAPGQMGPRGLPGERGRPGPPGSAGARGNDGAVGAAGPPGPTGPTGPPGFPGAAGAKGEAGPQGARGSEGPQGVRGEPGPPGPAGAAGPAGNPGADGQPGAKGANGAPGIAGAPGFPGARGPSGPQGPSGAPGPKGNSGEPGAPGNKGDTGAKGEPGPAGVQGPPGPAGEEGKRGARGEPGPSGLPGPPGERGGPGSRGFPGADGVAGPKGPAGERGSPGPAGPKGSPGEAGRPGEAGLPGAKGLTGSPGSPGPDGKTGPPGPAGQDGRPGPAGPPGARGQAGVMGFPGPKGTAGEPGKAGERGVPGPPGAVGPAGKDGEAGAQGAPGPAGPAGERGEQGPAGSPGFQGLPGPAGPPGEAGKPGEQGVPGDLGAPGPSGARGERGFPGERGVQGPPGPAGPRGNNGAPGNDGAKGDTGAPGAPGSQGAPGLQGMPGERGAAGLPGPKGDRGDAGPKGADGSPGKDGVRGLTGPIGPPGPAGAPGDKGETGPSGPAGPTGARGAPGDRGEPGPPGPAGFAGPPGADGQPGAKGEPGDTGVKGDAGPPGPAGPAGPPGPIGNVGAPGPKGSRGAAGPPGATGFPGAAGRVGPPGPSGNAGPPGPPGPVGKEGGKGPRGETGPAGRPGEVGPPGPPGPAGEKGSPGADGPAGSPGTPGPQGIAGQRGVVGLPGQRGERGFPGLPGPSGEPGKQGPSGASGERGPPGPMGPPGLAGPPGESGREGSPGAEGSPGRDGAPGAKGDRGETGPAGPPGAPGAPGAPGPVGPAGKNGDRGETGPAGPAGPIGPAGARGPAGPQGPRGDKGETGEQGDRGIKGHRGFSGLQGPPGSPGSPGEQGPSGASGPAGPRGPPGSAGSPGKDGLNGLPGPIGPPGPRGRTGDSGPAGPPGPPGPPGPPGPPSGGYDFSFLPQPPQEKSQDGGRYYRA
T1 sequence (P02466 86-1125 limits assumed): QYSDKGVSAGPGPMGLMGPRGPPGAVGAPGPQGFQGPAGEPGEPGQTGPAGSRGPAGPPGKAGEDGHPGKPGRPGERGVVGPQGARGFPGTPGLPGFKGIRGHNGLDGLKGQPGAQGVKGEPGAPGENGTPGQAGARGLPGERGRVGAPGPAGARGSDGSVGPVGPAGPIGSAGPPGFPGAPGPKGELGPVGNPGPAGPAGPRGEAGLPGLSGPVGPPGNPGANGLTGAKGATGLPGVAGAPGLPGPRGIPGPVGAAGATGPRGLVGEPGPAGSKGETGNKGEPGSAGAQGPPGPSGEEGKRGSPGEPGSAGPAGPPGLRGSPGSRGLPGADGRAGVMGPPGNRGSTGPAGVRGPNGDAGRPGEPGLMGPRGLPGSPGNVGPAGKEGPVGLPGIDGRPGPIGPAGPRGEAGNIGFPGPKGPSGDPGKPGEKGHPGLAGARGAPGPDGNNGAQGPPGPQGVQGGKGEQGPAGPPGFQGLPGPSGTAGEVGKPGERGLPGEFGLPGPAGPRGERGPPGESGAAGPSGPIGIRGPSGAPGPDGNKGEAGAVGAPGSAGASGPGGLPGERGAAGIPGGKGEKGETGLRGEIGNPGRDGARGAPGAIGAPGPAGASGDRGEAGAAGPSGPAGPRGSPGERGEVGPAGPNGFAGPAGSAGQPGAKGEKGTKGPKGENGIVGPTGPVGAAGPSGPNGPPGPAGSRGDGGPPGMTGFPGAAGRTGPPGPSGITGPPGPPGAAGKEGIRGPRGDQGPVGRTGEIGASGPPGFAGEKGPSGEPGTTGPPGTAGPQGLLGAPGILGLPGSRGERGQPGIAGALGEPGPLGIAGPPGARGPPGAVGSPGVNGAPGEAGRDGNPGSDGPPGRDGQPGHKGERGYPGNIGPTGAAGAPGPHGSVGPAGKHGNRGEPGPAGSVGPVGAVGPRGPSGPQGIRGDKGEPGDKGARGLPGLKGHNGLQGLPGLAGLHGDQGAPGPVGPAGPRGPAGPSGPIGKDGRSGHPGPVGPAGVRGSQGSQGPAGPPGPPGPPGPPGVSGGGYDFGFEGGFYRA
Method: Binding isotherms were obtained by following a method previously reported. (Caravan, P., Das, B., Dumas, S., Epstein, F. H., Helm, P. A., Jacques, V., Koerner, S., Kolodziej, A., Shen, L., Sun, W., Zhang, Z., Angewandte Chemie, 2007, 119(43), 8319-8321.) Briefly, increasing concentrations of a mixture of ^63/65Cu-CBP(n) and ^64Cu-CBP(n) were added to collagen containing wells. […] An aliquot of each solution was reserved as a measure of the total concentration. The plates were incubated on a shaker table (300 rpm) for 2 hours at room temperature to allow the compound to bind. After 2 hours, the supernatant from each well (with or without collagen) was assayed for ^64Cu content. The relative amount of free, unbound compound in the sample supernatants and the amount of compound in the reserved (total) sample were determined by using a gamma counter. The bound concentration is [Total]−[Free]. The concentration of ^63/65Cu-CBP(n) was less than the collagen concentration and the data were fit to a model of a single binding site with dissociation constant, Kd.

Kd (rat tail collagen) | SMILES | Biodistribution % ID/g, liver ([1]; in vivo, 2.5 h) | tissue uptake at 2.5 h (in vivo; liver) | lung uptake in BM-treated (fibrotic) mice compared to sham, in words [1] | Biodistribution % ID/g, blood ([1]; in vivo, 2 h) | Biodistribution % ID/g, heart ([1]; in vivo, 2 h) | Biodistribution % ID/g, kidney ([1]; in vivo, 2 h) | Biodistribution % ID/g, liver ([1]; in vivo, 2 h) | Biodistribution % ID/g, lungs ([1]; in vivo, 2 h) | Biodistribution % ID/g, sm. intestine ([1]; in vivo, 2 h) | Biodistribution % ID/g, spleen ([1]; in vivo, 2 h) | route of excretion ([1]; mouse, in vivo) | tissue uptake at 2 h (in vivo; blood) | tissue uptake at 2 h (in vivo; heart) | tissue uptake at 2 h (in vivo; kidney) | tissue uptake at 2 h (in vivo; liver) | tissue uptake at 2 h (in vivo; lungs) | tissue uptake at 2 h (in vivo; sm. intestine) | tissue uptake at 2 h (in vivo; spleen) | further results
 | CC(C)C[C@H](NC(=O)[C@@H]1CSSC[C@@H](NC(=O)[C@H](Cc2c[nH]cn2)NC(=O)[C@H](Cc2c[nH]c3ccccc23)NC(=O)[C@H](CCCCNC(=O)CNC(=O)CCC(C(=O)O)N2CCN(CC(=O)O)CCN(CC(=O)O)CC2)NC(=O)CNC(=O)CCC(C(=O)O)N2CCN(CC(=O)O)CCN(CC(=O)O)CC2)C(=O)N[C@@H]([C@@H](C)O)C(=O)N[C@@H]([C@@H](C)O)C(=O)N[C@@H](CCCCNC(=O)CCC(C(=O)O)N2CCN(CC(=O)O)CCN(CC(=O)O)CC2)C(=O)N[C@@H](Cc2ccccc2)C(=O)N2CCC[C@H]2C(=O)N[C@@H](Cc2c[nH]cn2)C(=O)N[C@@H](Cc2c[nH]cn2)C(=O)N[C@@H](Cc2ccc(O)cc2)C(=O)N1)C(=O)N[C@@H](Cc1ccc(O)cc1)C(=O)N[C@@H](Cc1ccc(-c2ccccc2)cc1)C(N)=O (stereo partly drawn) (64Cu complex, metal not drawn) [CBP11] | 0.953 ± 0.069 % ID/g | 1.3 ± 0.086 %ID/g |  |  |  |  |  |  |  |  |  |  |  |  |  |  |  |  | Biodistribution % ID/g, blood ([1]; in vivo, 2.5 h): 0.373 ± 0.180 % ID/g; Biodistribution % ID/g, heart ([1]; in vivo, 2.5 h): 0.170 ± 0.044 % ID/g; Biodistribution % ID/g, spleen ([1]; in vivo, 2.5 h): 0.475 ± 0.063 % ID/g; tissue uptake at 2.5 h (in vivo; blood): 0.21 ± 0.017 %ID/g; tissue uptake at 2.5 h (in vivo; heart): 0.143 ± 0.008 %ID/g; tissue uptake at 2.5 h (in vivo; spleen): 0.408 ± 0.015 %ID/g
7.2 ± 5.2 µM | C[C@@H](O)[C@@H]1NC(=O)[C@@H](NC(=O)[C@H](Cc2c[nH]cn2)NC(=O)[C@H](Cc2c[nH]c3ccccc23)NC(=O)[C@H](CCC(N)=O)NC(=O)CNC(=O)CCC(C(=O)O)N2CCN(CC(=O)O)CCN(CC(=O)O)CC2)CSSC[C@@H](C(=O)N[C@@H](Cc2ccccc2)C(=O)N[C@@H](Cc2ccc(O)cc2)C(=O)NCC(N)=O)NC(=O)[C@H](Cc2ccc(O)cc2)NC(=O)[C@H](Cc2c[nH]cn2)NC(=O)[C@H](Cc2c[nH]cn2)NC(=O)[C@@H]2CCCN2C(=O)[C@H](Cc2ccccc2)NC(=O)[C@H](CCCNC(=N)N)NC(=O)[C@H]([C@@H](C)O)NC1=O (stereo partly drawn) [CBP5] ({NODAGA}-GQWHCTTRFPHHYCFYG-NH2; disulfide 5-14) |  |  | greater lung uptake in BM-treated mice | 0.121 ± 0.028 % ID/g | 0.094 ± 0.013 % ID/g | 18.368 ± 1.909 % ID/g | 3.836 ± 0.770 % ID/g | 0.623 ± 0.320 % ID/g | 0.431 ± 0.089 % ID/g | 1.588 ± 0.546 % ID/g | excreted mainly through the kidneys | 0.11 ± 0.018 %ID/g | 0.075 ± 0.009 %ID/g | 30.5 ± 2.01 %ID/g | 2.63 ± 0.146 %ID/g | 0.318 ± 0.135 %ID/g | 0.513 ± 0.1 %ID/g | 0.815 ± 0.42 %ID/g | Biodistribution % ID/g, bone ([1]; in vivo, 2 h): 0.490 ± 0.237 % ID/g; Biodistribution % ID/lung ([1]; mouse, in vivo): 0.016 ± 0.007 % ID/lung; tissue uptake at 2 h (in vivo; bone): 0.703 ± 0.343 %ID/g; tissue uptake dose at 2 h (in vivo; Biodistribution % ID/lung): 0.032 ± 0.016 %ID
14.6 ± 5.8 µM | CC(C)C[C@H](NC(=O)[C@@H]1CSSC[C@H](NC(=O)[C@H](Cc2c[nH]cn2)NC(=O)[C@H](Cc2c[nH]c3ccccc23)NC(=O)[C@H](CCC(N)=O)NC(=O)CNC(=O)CCC(C(=O)O)N2CCN(CC(=O)O)CCN(CC(=O)O)CC2)C(=O)N[C@@H](Cc2ccc(O)cc2)C(=O)N[C@@H]([C@@H](C)O)C(=O)N[C@@H](CC(C)C)C(=O)N[C@@H](Cc2ccccc2)C(=O)N2CCC[C@H]2C(=O)N[C@@H](Cc2c[nH]cn2)C(=O)N[C@@H](Cc2c[nH]cn2)C(=O)N[C@@H](Cc2ccc(O)cc2)C(=O)N1)C(=O)N[C@@H](Cc1ccc(O)cc1)C(=O)NCC(N)=O (stereo partly drawn) [CBP6] ({NODAGA}-GQWHCYTLFPHHYCLYG-NH2; disulfide 5-14; C-terminus assumed) |  |  | greater lung uptake in BM-treated mice | 0.279 ± 0.096 % ID/g | 0.156 ± 0.016 % ID/g | 14.008 ± 0.727 % ID/g | 2.503 ± 0.218 % ID/g | 0.019 ± 0.003 % ID/g | 0.938 ± 0.164 % ID/g | 0.775 ± 0.084 % ID/g | excreted mainly through the kidneys | 0.147 ± 0.01 %ID/g | 0.121 ± 0.017 %ID/g | 13.4 ± 1.23 %ID/g | 2.64 ± 0.144 %ID/g | 0.013 ± 0.002 %ID/g | 0.747 ± 0.168 %ID/g | 0.669 ± 0.03 %ID/g | 
 | CC(C)C[C@H](NC(=O)[C@@H]1CSSC[C@H](NC(=O)[C@H](Cc2c[nH]cn2)NC(=O)[C@H](Cc2c[nH]c3ccccc23)NC(=O)[C@H](CCCCNC(=O)CNC(=O)CN2CCN(CC(=O)O)CCN(CC(=O)O)CC2)NC(=O)CNC(=O)CN2CCN(CC(=O)O)CCN(CC(=O)O)CC2)C(=O)N[C@@H]([C@@H](C)O)C(=O)N[C@@H]([C@@H](C)O)C(=O)N[C@@H](CCCCNC(=O)CN2CCN(CC(=O)O)CCN(CC(=O)O)CC2)C(=O)N[C@@H](Cc2ccccc2)C(=O)N2CCC[C@H]2C(=O)N[C@@H](Cc2c[nH]cn2)C(=O)N[C@@H](Cc2c[nH]cn2)C(=O)N[C@@H](Cc2ccc(O)cc2)C(=O)N1)C(=O)N[C@@H](Cc1ccc(O)cc1)C(=O)N[C@@H](Cc1ccc(-c2ccccc2)cc1)C(N)=O [CBP10, Al^18F-NOTA-cPep(7)] | 27.231 ± 0.995 % ID/g | 14 ± 1 %ID/g |  |  |  |  |  |  |  |  |  |  |  |  |  |  |  |  | Biodistribution % ID/g, bone ([1]; in vivo, 2.5 h): 2.963 ± 0.716 % ID/g; Biodistribution % ID/g, kidney ([1]; in vivo, 2.5 h): 44.170 ± 16.811 % ID/g; Biodistribution % ID/g, sm. intestine ([1]; in vivo, 2.5 h): 1.492 ± 0.542 % ID/g; tissue uptake at 2.5 h (in vivo; bone): 2.53 ± 0.735 %ID/g; tissue uptake at 2.5 h (in vivo; kidney): 26.2 ± 4.85 %ID/g; tissue uptake at 2.5 h (in vivo; sm. intestine): 1.12 ± 0.48 %ID/g
